From paper PMC3142795

Columns and labels:
IFI16 HINa = IFI16 HINa (UniProt Q16666 189-389); assay: AlphaScreen
IFI16 HINab = IFI16 HINab (UniProt Q16666 189-761); assay: AlphaScreen
IFI16 HINab, sequence (Q16666 189-761): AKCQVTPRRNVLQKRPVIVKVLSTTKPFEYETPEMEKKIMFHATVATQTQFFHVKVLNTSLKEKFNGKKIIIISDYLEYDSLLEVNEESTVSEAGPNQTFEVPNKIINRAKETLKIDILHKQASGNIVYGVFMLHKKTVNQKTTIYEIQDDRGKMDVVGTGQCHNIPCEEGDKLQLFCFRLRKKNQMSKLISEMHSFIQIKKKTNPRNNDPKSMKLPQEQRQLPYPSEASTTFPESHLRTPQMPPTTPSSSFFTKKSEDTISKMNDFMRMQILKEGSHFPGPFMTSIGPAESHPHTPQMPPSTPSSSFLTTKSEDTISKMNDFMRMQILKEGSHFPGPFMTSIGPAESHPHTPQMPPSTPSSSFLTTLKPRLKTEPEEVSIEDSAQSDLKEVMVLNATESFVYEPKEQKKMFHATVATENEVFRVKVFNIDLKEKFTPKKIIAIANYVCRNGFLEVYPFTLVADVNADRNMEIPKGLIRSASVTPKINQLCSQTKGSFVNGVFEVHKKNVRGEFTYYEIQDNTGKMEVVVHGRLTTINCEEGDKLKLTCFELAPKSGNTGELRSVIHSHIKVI

IFI16 HINa, sequence (Q16666 189-389): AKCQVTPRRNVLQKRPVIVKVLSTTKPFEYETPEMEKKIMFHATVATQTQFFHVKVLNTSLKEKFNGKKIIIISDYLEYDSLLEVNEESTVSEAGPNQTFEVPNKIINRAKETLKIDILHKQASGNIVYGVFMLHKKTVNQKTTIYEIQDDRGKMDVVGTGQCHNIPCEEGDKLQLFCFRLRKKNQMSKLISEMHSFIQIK

B1: dsVACV 70mer (dsDNA)
DNA 1: CCATCAGAAAGAGGTTTAATATTTTTGTGAGACCATCGAAGAGAGAAAGAGATAAAACTTTTTTACGACT
DNA 2: AGTCGTAAAAAAGTTTTATCTCTTTCTCTCTTCGATGGTCTCACAAAAATATTAAACCTCTTTCTGATGG
Question: Does B1 bind (IFI16 HINa)?
Answer: no binding

Question: Does B1 bind (IFI16 HINab)?
Answer: binds
